# Measurements: patent publication US20250215412A1 (NOVOZYMES A S, published 2025)
# Key:
# Experiment in all cases: cell-based or functional assay
# [1] = target: T1, Chryseobacterium sp-62563 deamidase Q172V (Chryseobacterium sp-62563)
# T1 sequence: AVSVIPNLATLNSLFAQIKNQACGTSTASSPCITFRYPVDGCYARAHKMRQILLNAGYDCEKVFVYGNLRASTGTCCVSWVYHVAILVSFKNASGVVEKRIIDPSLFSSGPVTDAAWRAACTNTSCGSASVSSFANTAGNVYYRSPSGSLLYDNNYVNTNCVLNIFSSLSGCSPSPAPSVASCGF
# [2] = target: T2, Chryseobacterium sp-62563 deamidase Q160D (Chryseobacterium sp-62563)
# T2 sequence: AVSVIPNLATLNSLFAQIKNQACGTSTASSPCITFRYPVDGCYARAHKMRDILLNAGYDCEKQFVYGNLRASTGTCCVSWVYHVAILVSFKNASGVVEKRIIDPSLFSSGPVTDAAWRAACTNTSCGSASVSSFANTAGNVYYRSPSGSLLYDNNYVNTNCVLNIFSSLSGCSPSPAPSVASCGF
# [3] = target: T3, Chryseobacterium sp-62563 deamidase C230N (Chryseobacterium sp-62563)
# T3 sequence: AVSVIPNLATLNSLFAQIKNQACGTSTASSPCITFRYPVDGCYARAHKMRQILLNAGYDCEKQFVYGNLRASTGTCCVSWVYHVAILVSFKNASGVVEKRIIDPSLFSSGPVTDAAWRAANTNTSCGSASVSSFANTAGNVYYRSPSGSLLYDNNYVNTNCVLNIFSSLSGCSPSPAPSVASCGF
# [4] = target: T4, Chryseobacterium sp-62563 deamidase Q130D (Chryseobacterium sp-62563)
# T4 sequence: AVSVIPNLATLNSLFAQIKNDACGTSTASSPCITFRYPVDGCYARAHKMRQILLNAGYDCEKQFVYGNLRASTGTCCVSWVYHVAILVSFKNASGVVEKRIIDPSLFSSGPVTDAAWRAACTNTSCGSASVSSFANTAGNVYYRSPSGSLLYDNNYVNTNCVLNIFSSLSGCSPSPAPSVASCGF
# [5] = target: T5, Chryseobacterium sp-62563 deamidase Q160E (Chryseobacterium sp-62563)
# T5 sequence: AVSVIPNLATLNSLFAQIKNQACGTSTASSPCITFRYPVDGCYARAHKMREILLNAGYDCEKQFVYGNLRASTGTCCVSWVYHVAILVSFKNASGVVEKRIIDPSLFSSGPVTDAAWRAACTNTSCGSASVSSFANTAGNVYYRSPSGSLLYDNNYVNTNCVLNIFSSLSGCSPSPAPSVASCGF
# [6] = target: T6, Chryseobacterium sp-62563 deamidase Q126E (Chryseobacterium sp-62563)
# T6 sequence: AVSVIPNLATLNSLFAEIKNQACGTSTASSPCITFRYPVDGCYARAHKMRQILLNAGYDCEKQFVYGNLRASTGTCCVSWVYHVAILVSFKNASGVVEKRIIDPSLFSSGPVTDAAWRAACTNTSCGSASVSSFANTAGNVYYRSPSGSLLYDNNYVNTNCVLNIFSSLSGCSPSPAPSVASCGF
# [7] = target: T7, Chryseobacterium sp-62563 deamidase Q130L (Chryseobacterium sp-62563)
# T7 sequence: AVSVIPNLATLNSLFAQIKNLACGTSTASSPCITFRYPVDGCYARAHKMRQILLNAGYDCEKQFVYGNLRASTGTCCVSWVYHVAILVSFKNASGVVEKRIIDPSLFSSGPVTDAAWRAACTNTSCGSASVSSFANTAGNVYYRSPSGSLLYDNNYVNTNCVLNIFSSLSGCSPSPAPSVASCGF
# [8] = target: T8, Chryseobacterium sp-62563 deamidase Q172E (Chryseobacterium sp-62563)
# T8 sequence: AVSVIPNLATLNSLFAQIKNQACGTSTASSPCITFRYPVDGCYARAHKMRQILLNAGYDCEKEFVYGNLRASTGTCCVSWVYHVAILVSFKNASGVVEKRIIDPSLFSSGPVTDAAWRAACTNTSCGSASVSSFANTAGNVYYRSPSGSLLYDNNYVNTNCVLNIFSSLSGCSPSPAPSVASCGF
# [9] = target: T9, Chryseobacterium sp-62563 deamidase Q130E (Chryseobacterium sp-62563)
# T9 sequence: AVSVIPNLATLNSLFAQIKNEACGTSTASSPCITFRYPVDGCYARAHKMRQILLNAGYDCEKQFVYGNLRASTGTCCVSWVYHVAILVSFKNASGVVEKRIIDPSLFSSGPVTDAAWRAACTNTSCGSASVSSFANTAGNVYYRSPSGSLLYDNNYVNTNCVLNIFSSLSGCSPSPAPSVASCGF
# [10] = target: T10, Chryseobacterium sp-62563 deamidase Q126N (Chryseobacterium sp-62563)
# T10 sequence: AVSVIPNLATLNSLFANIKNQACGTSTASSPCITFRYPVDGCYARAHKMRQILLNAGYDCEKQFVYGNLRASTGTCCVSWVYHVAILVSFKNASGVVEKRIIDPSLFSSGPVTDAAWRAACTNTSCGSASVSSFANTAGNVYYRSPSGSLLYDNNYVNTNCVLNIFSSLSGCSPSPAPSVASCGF
# [11] = target: T11, Chryseobacterium sp-62563 deamidase polypeptide (second polypeptide, deamidase domain), wildtype (Chryseobacterium sp-62563)
# T11 sequence: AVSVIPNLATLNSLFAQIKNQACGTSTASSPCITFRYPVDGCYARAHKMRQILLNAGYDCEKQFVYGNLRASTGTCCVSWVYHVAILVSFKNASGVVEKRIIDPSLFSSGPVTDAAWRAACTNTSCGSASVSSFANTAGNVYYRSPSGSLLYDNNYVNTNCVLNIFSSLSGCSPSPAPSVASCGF
# [12] = target: T12, Chryseobacterium sp-62563 deamidase Q172N (Chryseobacterium sp-62563)
# T12 sequence: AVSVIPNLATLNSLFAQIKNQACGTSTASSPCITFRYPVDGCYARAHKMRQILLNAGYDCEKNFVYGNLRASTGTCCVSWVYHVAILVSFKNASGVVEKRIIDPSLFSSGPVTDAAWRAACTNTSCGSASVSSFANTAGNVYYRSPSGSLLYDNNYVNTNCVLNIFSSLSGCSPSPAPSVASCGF
binder,measurement,setting,value
Chryseobacterium sp-62563 propeptide F99A (protein) NQDPNLVAKESNETAMKDFGKTVPVGIEKEDGKFKISFMVTAQPYEIKDSKENAAYISMIKTAVENETPIHVFLKANTNEIAKVDKATDDDIRYFKSVATKEVKEENRK,Relative activity of maturated deamidase (% initial rate),[1],66
same,Relative activity of maturated deamidase (% initial rate),[2],> 100
same,Leakage activity,[3],0%
same,Relative activity of maturated deamidase (% initial rate),[3],42
same,Relative activity of maturated deamidase (% initial rate),[4],> 100
same,Relative activity of maturated deamidase (% initial rate),[5],> 100
same,Relative activity of maturated deamidase (% initial rate),[6],> 100
same,Relative activity of maturated deamidase (% initial rate),[7],> 100
same,Relative activity of maturated deamidase (% initial rate),[8],64
same,Relative activity of maturated deamidase (% initial rate),[9],44
same,Relative activity of maturated deamidase (% initial rate),[10],> 100
same,Leakage activity,[11],4%
same,NanoDSF thermal unfolding temperature,[11],76.4 ° C.
same,Relative activity of maturated deamidase (% initial rate),[11],52
same,Relative activity of maturated deamidase (% initial rate),[12],51
